Source: patent publication US20130210709A1 (ANCHOR THERAPEUTICS, published 2013)
Square brackets hold non-standard residues; d marks the D form. Ends that are not written are not given here. * marks the point of attachment. Palmitoyl = CCCCCCCCCCCCCCCC(=O)*

B1: CXCR4 i1 loop compound 147 (peptide)
peptide: Palmitoyl-MGYQKKLRSATDKYRL-NH2
SMILES: CCCCCCCCCCCCCCCC(=O)N[C@@H](CCSC)C(=O)NCC(=O)N[C@@H](Cc1ccc(O)cc1)C(=O)N[C@@H](CCC(N)=O)C(=O)N[C@@H](CCCCN)C(=O)N[C@@H](CCCCN)C(=O)N[C@@H](CC(C)C)C(=O)N[C@@H](CCCNC(=N)N)C(=O)N[C@@H](CO)C(=O)N[C@@H](C)C(=O)N[C@H](C(=O)N[C@@H](CC(=O)O)C(=O)N[C@@H](CCCCN)C(=O)N[C@@H](Cc1ccc(O)cc1)C(=O)N[C@@H](CCCNC(=N)N)C(=O)N[C@@H](CC(C)C)C(N)=O)[C@@H](C)O
B2: CXCR4 i1 loop compound 170 (peptide)
peptide: Palmitoyl-MGYQKK[dL]RSMTDKYRL-NH2
B3: CXCR4 i1 loop compound 165 (peptide)
peptide: Palmitoyl-[dM]GYQKKLRSMTDKYRL-NH2
B4: CXCR4 i1 loop compound 162 (peptide)
peptide: Palmitoyl-MGYQKKLRSMTD[dK]YRL-NH2
B5: CXCR4 i1 loop compound 160 (peptide)
peptide: Palmitoyl-MGYQKKLRSMTDKY[dR]L-NH2
B6: CXCR4 i1 loop compound 168 (peptide)
peptide: Palmitoyl-MGYQ[dK]KLRSMTDKYRL-NH2
B7: CXCR4 i1 loop compound 167 (peptide)
peptide: Palmitoyl-MGY[dQ]KKLRSMTDKYRL-NH2
B8: CXCR4 i1 loop compound 161 (peptide)
peptide: Palmitoyl-MGYQKKLRSMTDK[dY]RL-NH2
B9: CXCR4 i1 loop compound 151 (peptide)
peptide: Palmitoyl-MGYQKKLRSMTDKARL-NH2
SMILES: CCCCCCCCCCCCCCCC(=O)N[C@@H](CCSC)C(=O)NCC(=O)N[C@@H](Cc1ccc(O)cc1)C(=O)N[C@@H](CCC(N)=O)C(=O)N[C@@H](CCCCN)C(=O)N[C@@H](CCCCN)C(=O)N[C@@H](CC(C)C)C(=O)N[C@@H](CCCNC(=N)N)C(=O)N[C@@H](CO)C(=O)N[C@@H](CCSC)C(=O)N[C@H](C(=O)N[C@@H](CC(=O)O)C(=O)N[C@@H](CCCCN)C(=O)N[C@@H](C)C(=O)N[C@@H](CCCNC(=N)N)C(=O)N[C@@H](CC(C)C)C(N)=O)[C@@H](C)O
B10: CXCR4 i1 loop compound 148 (peptide)
peptide: Palmitoyl-MGYQKKLRSMADKYRL-NH2
SMILES: CCCCCCCCCCCCCCCC(=O)N[C@@H](CCSC)C(=O)NCC(=O)N[C@@H](Cc1ccc(O)cc1)C(=O)N[C@@H](CCC(N)=O)C(=O)N[C@@H](CCCCN)C(=O)N[C@@H](CCCCN)C(=O)N[C@@H](CC(C)C)C(=O)N[C@@H](CCCNC(=N)N)C(=O)N[C@@H](CO)C(=O)N[C@@H](CCSC)C(=O)N[C@@H](C)C(=O)N[C@@H](CC(=O)O)C(=O)N[C@@H](CCCCN)C(=O)N[C@@H](Cc1ccc(O)cc1)C(=O)N[C@@H](CCCNC(=N)N)C(=O)N[C@@H](CC(C)C)C(N)=O
B11: CXCR4 i1 loop compound 153 (peptide)
peptide: Palmitoyl-MGYQKKLRSMTDKYRA-NH2
SMILES: CCCCCCCCCCCCCCCC(=O)N[C@@H](CCSC)C(=O)NCC(=O)N[C@@H](Cc1ccc(O)cc1)C(=O)N[C@@H](CCC(N)=O)C(=O)N[C@@H](CCCCN)C(=O)N[C@@H](CCCCN)C(=O)N[C@@H](CC(C)C)C(=O)N[C@@H](CCCNC(=N)N)C(=O)N[C@@H](CO)C(=O)N[C@@H](CCSC)C(=O)N[C@H](C(=O)N[C@@H](CC(=O)O)C(=O)N[C@@H](CCCCN)C(=O)N[C@@H](Cc1ccc(O)cc1)C(=O)N[C@@H](CCCNC(=N)N)C(=O)N[C@@H](C)C(N)=O)[C@@H](C)O
B12: CXCR4 i1 loop compound 166 (peptide)
peptide: Palmitoyl-MG[dY]QKKLRSMTDKYRL-NH2
B13: CXCR4 i1 loop compound 152 (peptide)
peptide: Palmitoyl-MGYQKKLRSMTDKYAL-NH2
SMILES: CCCCCCCCCCCCCCCC(=O)N[C@@H](CCSC)C(=O)NCC(=O)N[C@@H](Cc1ccc(O)cc1)C(=O)N[C@@H](CCC(N)=O)C(=O)N[C@@H](CCCCN)C(=O)N[C@@H](CCCCN)C(=O)N[C@@H](CC(C)C)C(=O)N[C@@H](CCCNC(=N)N)C(=O)N[C@@H](CO)C(=O)N[C@@H](CCSC)C(=O)N[C@H](C(=O)N[C@@H](CC(=O)O)C(=O)N[C@@H](CCCCN)C(=O)N[C@@H](Cc1ccc(O)cc1)C(=O)N[C@@H](C)C(=O)N[C@@H](CC(C)C)C(N)=O)[C@@H](C)O
B14: CXCR4 i1 loop compound 146 (peptide)
peptide: Palmitoyl-MGYQKKLRAMTDKYRL-NH2
SMILES: CCCCCCCCCCCCCCCC(=O)N[C@@H](CCSC)C(=O)NCC(=O)N[C@@H](Cc1ccc(O)cc1)C(=O)N[C@@H](CCC(N)=O)C(=O)N[C@@H](CCCCN)C(=O)N[C@@H](CCCCN)C(=O)N[C@@H](CC(C)C)C(=O)N[C@@H](CCCNC(=N)N)C(=O)N[C@@H](C)C(=O)N[C@@H](CCSC)C(=O)N[C@H](C(=O)N[C@@H](CC(=O)O)C(=O)N[C@@H](CCCCN)C(=O)N[C@@H](Cc1ccc(O)cc1)C(=O)N[C@@H](CCCNC(=N)N)C(=O)N[C@@H](CC(C)C)C(N)=O)[C@@H](C)O
B15: CXCR4 i1 loop compound 163 (peptide)
peptide: Palmitoyl-MGYQKKLRSMT[dD]KYRL-NH2
B16: CXCR4 i1 loop compound 129 (peptide)
peptide: Palmitoyl-AGYQKKLRSMTDKYRL-NH2
SMILES: CCCCCCCCCCCCCCCC(=O)N[C@@H](C)C(=O)NCC(=O)N[C@@H](Cc1ccc(O)cc1)C(=O)N[C@@H](CCC(N)=O)C(=O)N[C@@H](CCCCN)C(=O)N[C@@H](CCCCN)C(=O)N[C@@H](CC(C)C)C(=O)N[C@@H](CCCNC(=N)N)C(=O)N[C@@H](CO)C(=O)N[C@@H](CCSC)C(=O)N[C@H](C(=O)N[C@@H](CC(=O)O)C(=O)N[C@@H](CCCCN)C(=O)N[C@@H](Cc1ccc(O)cc1)C(=O)N[C@@H](CCCNC(=N)N)C(=O)N[C@@H](CC(C)C)C(N)=O)[C@@H](C)O
B17: CXCR4 i1 loop compound 159 (peptide)
peptide: Palmitoyl-MGYQKKLRSMTDKYR[dL]-NH2
B18: CXCR4 i1 loop compound 164 (peptide)
peptide: Palmitoyl-MGYQKKLRSM[dT]DKYRL-NH2
B19: CXCR4 i1 loop compound 169 (peptide)
peptide: Palmitoyl-MGYQK[dK]LRSMTDKYRL-NH2
B20: CXCR4 i1 loop compound 149 (peptide)
peptide: Palmitoyl-MGYQKKLRSMTAKYRL-NH2
SMILES: CCCCCCCCCCCCCCCC(=O)N[C@@H](CCSC)C(=O)NCC(=O)N[C@@H](Cc1ccc(O)cc1)C(=O)N[C@@H](CCC(N)=O)C(=O)N[C@@H](CCCCN)C(=O)N[C@@H](CCCCN)C(=O)N[C@@H](CC(C)C)C(=O)N[C@@H](CCCNC(=N)N)C(=O)N[C@@H](CO)C(=O)N[C@@H](CCSC)C(=O)N[C@H](C(=O)N[C@@H](C)C(=O)N[C@@H](CCCCN)C(=O)N[C@@H](Cc1ccc(O)cc1)C(=O)N[C@@H](CCCNC(=N)N)C(=O)N[C@@H](CC(C)C)C(N)=O)[C@@H](C)O
B21: CXCR4 i1 loop compound 150 (peptide)
peptide: Palmitoyl-MGYQKKLRSMTDAYRL-NH2
SMILES: CCCCCCCCCCCCCCCC(=O)N[C@@H](CCSC)C(=O)NCC(=O)N[C@@H](Cc1ccc(O)cc1)C(=O)N[C@@H](CCC(N)=O)C(=O)N[C@@H](CCCCN)C(=O)N[C@@H](CCCCN)C(=O)N[C@@H](CC(C)C)C(=O)N[C@@H](CCCNC(=N)N)C(=O)N[C@@H](CO)C(=O)N[C@@H](CCSC)C(=O)N[C@H](C(=O)N[C@@H](CC(=O)O)C(=O)N[C@@H](C)C(=O)N[C@@H](Cc1ccc(O)cc1)C(=O)N[C@@H](CCCNC(=N)N)C(=O)N[C@@H](CC(C)C)C(N)=O)[C@@H](C)O
B22: CXCR4 i3 loop compound 105 (peptide)
peptide: KLSHSKGHQKRKALKTTVIL-NH2
modifications: not fully specified (N-terminus); also: dual lipid, backbone lipid not given here
B23: CXCR4 i3 loop compound 101 (peptide)
peptide: Palmitoyl-SKLSHSKGHQKRKALK-NH2
SMILES: CCCCCCCCCCCCCCCC(=O)N[C@@H](CO)C(=O)N[C@@H](CCCCN)C(=O)N[C@@H](CC(C)C)C(=O)N[C@@H](CO)C(=O)N[C@@H](Cc1c[nH]cn1)C(=O)N[C@@H](CO)C(=O)N[C@@H](CCCCN)C(=O)NCC(=O)N[C@@H](Cc1c[nH]cn1)C(=O)N[C@@H](CCC(N)=O)C(=O)N[C@@H](CCCCN)C(=O)N[C@@H](CCCNC(=N)N)C(=O)N[C@@H](CCCCN)C(=O)N[C@@H](C)C(=O)N[C@@H](CC(C)C)C(=O)N[C@@H](CCCCN)C(N)=O
B24: CXCR4 i3 loop compound 103 (peptide)
peptide: IIISKLSHSKGHQKRKALKT-NH2
modifications: not fully specified (N-terminus); also: dual lipid, backbone lipid not given here
B25: CXCR4 i3 loop compound 104 (peptide)
peptide: Palmitoyl-IIISKLSHSKGHQKRKALKT
modifications: not fully specified (C-terminus); also: dual lipid, second lipid position not given here

The binders below were run against T1, CXCR4 receptor (human, UniProt P61073 1-352) (assay: cell-based or functional assay).
T1 sequence (P61073 whole entry): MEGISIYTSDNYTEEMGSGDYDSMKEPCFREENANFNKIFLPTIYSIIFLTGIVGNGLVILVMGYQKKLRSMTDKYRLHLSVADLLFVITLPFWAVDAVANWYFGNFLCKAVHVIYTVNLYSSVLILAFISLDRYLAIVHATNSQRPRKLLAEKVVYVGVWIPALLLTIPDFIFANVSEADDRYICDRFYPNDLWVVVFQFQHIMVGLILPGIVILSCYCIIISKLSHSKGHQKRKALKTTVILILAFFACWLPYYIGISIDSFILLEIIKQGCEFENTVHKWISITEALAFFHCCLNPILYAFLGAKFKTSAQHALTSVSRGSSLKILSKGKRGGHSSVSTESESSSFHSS

IC50 (nM), calcium flux, CCRF-CEM [nM] | Binder
54 | B1
72 | B2
112 | B3
291 | B4
5730 | B5
119 | B6
116 | B7
> 10000 | B8
> 10000 | B9
298 | B10
> 10000 | B11
129 | B12
> 10000 | B13
170 | B14
623 | B15
197 | B16
> 10000 | B17
322 | B18
88 | B19
126 | B20
313 | B21

Molecular target: T1, CXCR4 receptor
Assay: cell-based or functional assay
Remark: another data set of the same source

AUC (% of vehicle), chemotaxis, CEM, 1.0 uM | Max (% of vehicle), chemotaxis, CEM, 1.0 uM | Peak Ratio, chemotaxis, CEM, 1.0 uM | Binder
23.8 % of vehicle | 42.9 % of vehicle | 0.2 | B22
75.5 % of vehicle | 74.9 % of vehicle | 1 | B23
26.3 % of vehicle | 24.4 % of vehicle | 1 | B24
36.4 % of vehicle | 56.4 % of vehicle | 0.2 | B25
